The data set in a line: soluble fraction after stress (log2 fold change); higher = more stays soluble; pooled small domains, quantitative proteomics. Conditions: stress: pH 4. A digest of the protocol: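 Custom libraries of small protein domains were pooled and measured with high-throughput quantitative proteomics after pH 4 stress. The read-out is the fold change in the amount of each domain that stays soluble after the acid stress, taken as a measure of aggregation propensity. Fold changes are on a log2 scale, and higher values mean more of the domain stayed soluble.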
Turning to “HMEIRNLMPILSHFLNENDIKLSRESVNLVLDRASGNRENLNNELKKIHDYSFSNKIIDFETIKKLTNLG”, the “soluble fraction (log2)” value is -0.215. With “HMEISLAETLRSSLHMILGWYQNTGDKKLLELIRLHLQAYVNTGNSLNPEMEEIRAALETLGEGKEAFRP”, the “soluble fraction (log2)” value is -1.02. As for “HMEISNWLEEIGLSRYTETLSEFPLEDLVEFTDDDFKELGVLTPHRKKLLAAIATLNNDASSN”, the “soluble fraction (log2)” value was -1.12. For the sequence “HMEISTEVPLRGGTISEEALEALNRLPGVTASNIDGKSISVDVADNAELRVSDINQVLAVHSPDTRV”, the “soluble fraction (log2)” value was -0.707. On to “HMEITRDTVIQWLEAERRSQTWLSKQLGVSVQAVSNWLREKNPQTISASAQITIRALMEEDAAK”, for which the “soluble fraction (log2)” value is 0.00665. Regarding “HMEIVQVIAQNIQDLLDKHKISVSELSGYLGISRQTLTNYLKTTSTIDSVQLVKIADFFNIPAEYLLKDH”, the “soluble fraction (log2)” value was -0.659. Take “HMEIVSTEEKIKRAAEQVFLLRGLEGARMQEIADVAGINKAMLHYYFRNKETLFDVILSEKL”: the “soluble fraction (log2)” value was -1.14.

“HMEIYEEDRTKVVNDLMDQILNRQITMDAAATKFINIRNSLGTTITKEDEQNLEMLRGLIFDKT”: the “soluble fraction (log2)” value was -1.17.

For “HMEIYIDGNKYVGELRNGKPNGRGTITYTGDGSKYVGEWKNGKRYGRGKMAYTNGTTKEGVWKDDEFLYAT”, the “soluble fraction (log2)” value was 0.377. Take “HMEKAKVPSVIGMTEANAKRTIRDAGFKVGRVTRVESEAYDKGKVIEQQYEAGSELEKKKPISIVVSKGKK”: the “soluble fraction (log2)” value stood at 0.152.

On to “HMEKALEVKYQKMVELLGDQSTFYVDEVKKIFPEMKKSSLYWNMSKLVEGGYLRRIRNGVYAFNE”, for which the “soluble fraction (log2)” value is -0.124. As for “HMEKEKIKEALIGYFEAEPEEKFTVQELADKLKMNKAGQFNFVVQAVAQLEHDKVITLDDEGNFSLVRHE”, the “soluble fraction (log2)” value is -0.967.

“HMEKERYDTGIGELNRVLGGGLVKGSLILISGDPGIGKSTLLLQTANNISKKYGKVLYVSGEESEEQIKIR”: the “soluble fraction (log2)” value was -0.722. In the case of “HMEKGWYKLGQDSYYVDDDGKIHKGWLELDGKKYYFDQEGKMVTGTVNIDGKDYTFNEKGELYVS”, the “soluble fraction (log2)” value was -0.029. Consider “HMEKIELKTVIPENLKKKRLDFALSELFPEHSRSRIQSWIKEGSVMVNSKNYRQRDLVDAGDVVEINTEQK”, for which the “soluble fraction (log2)” value worked out at 0.321. The figure for “HMEKIIGQIQINQRGNGYVIVPNVKDDIFVKRENLNSARQGDRVAVQLLSRPNQKPEGLVQEVLERGQ” is 0.071. Regarding “HMEKILSYKALMNDAGKRIDQFLANNEKDISRTRIKSLILEGSLKLDNNIINDPSYKIKENDVFTLFIPEA”, the “soluble fraction (log2)” value is 0.0775. Regarding “HMEKIRIQKYLSERGVMSRRAADSALAEGRIAVNGVTARPGDKIDPSSDTLTIDGRIVTTGTAP”, the “soluble fraction (log2)” value was at least 0.43.

For “HMEKKEWVIYITGAVKKPGVYRIPEGARVYQALEAAGGFTPEADRDAVNLAAMLQDGAHIKFPAVGEEV”, the “soluble fraction (log2)” value amounted to 0.0865. In the case of “HMEKLNYSISNEEQGQRIDKYLSLMIEGKSRSFIQGLIDDKKVMANGKVIKSNYKLKNNDEITVEMPDPI”, the “soluble fraction (log2)” value was 0.0918.

Consider “HMEKNILPDTSPEKQYEFATSFLKVGDYSTAERAFREFVINNSEHKLAGNAQYWYAETFRIRQ”, for which the “soluble fraction (log2)” value worked out at 0.148. Turning to “HMEKSQIHLIHTRYVNPEQLVPILSMVIPAENIYVKSDSNLIIINGSSEMLREVESIVSKLDVPS”, the “soluble fraction (log2)” value is -0.687. The figure for “HMEKSSALRAKEAFMALYHDGKFKPGTKIPSESNMAELLGVSRETWRKALALLRGDGVLYSKHGSGTYLLE” is -0.0262; for “HMEKTKLPNLVDFTYRQAEALLQTHGLKVGKVERVPDVGQTVIKAKYKGKVISWGTELNKGEKIDLVIGKG” it is 0.13; for “HMELADLPSAQIREILAYVYRAPLEKRRDPSIHWLLIAAHKLTLPLLDRLDPADARALGERYGADYP” it is -0.644. The same measure for “HMELARLRPELDGNDIMRILGVPPGPVVGRAYTYLLELRINQGELGRERVTQLLLDWAAAEGISA”: -1.8; for “HMELDMTFGEKIQKLRKESGLSQEELSYQLGVSRQAISKWERDSGYPETEKIVRMSKIFDVTLDYLLNE”: -1.06; for “HMELEDTYTKNLDASLARLDEYQASKGLTDEQVDEVINSLIADAENIIMGVFTPELIDSKLKAMNYDQDV”: -0.17.

For the sequence “HMELEFLTEKQKEALILAVNRGYYDVDSEVTLKRLADELGIARSTYGEHLKRAESEALKMVVSDLLRD”, the “soluble fraction (log2)” value is -1.03.

For “HMELEIPGELIEAVRRLRDERQRMRLAGELAARQIQMHPERYTEASIDPVQTWDELRARILALA”, the “soluble fraction (log2)” value is -0.582.

As to “HMELLSGTVEKVLTSGVLVKLPGGAIGFIPNSEMGTPRGTNHGKMFPAGTPLQVMVVEVNQDRGRITLSR”, the “soluble fraction (log2)” value was -0.389. The same measure for “HMELLTNPLTGREVEVLTLMALGQTNHEIARQLYLATGTVKAHTSSIYRKLDVANRTEAVARARQLGIL”: -0.448. “HMELLTYREMDVLNLLDQRLTNKEIAHALGISTETVRQHTVNLFRKLNVDNRRQAIVVARSLGYIGTPT”: the “soluble fraction (log2)” value is -0.894.

Take “HMELNESVLKALYEKFREMSGSKGFITEDEVIIQLEKENPDITPDQQAEIFKYLYDTPLQIY”: the “soluble fraction (log2)” value was -0.996.

For the sequence “HMELNFEGFYRFVRDELNVDLNAYKEKQLKRRIATVMKSSGALTLEDYSRLIANDEVIRNKFLDYITI”, the “soluble fraction (log2)” value is -0.894.

As to “HMELPMGTQLPPERELAQQMQVSRAVVNGGLAELAQQGFLEVRPRQGTFVADYRRKGNLSTLIAIMEY”, the “soluble fraction (log2)” value was 0.22. On to “HMELPPLQPGQPIDGRVEQQIRAGYYVVSVRGRGYEFQLPESARPGDLLRMVYLNDHPRLTFALLRIDNAN”, for which the “soluble fraction (log2)” value was -0.546. Take “HMELPVAVPHTELSPEALRGVVESFVLREGTDYGERDVPFEAKVAQVIRQLERGEARIMFDPVTQSVQIVT”: the “soluble fraction (log2)” value was -0.411. For the sequence “HMELRSPMPGLIIEIPVSKGDIIKKDQSLIILEAMKMENVLTSPINGKIADIKVNVQDTVEKNNLLITFEN”, the “soluble fraction (log2)” value is -1.23. Regarding “HMELSESLENYLVVIYEAHLRNEIARIKDMTASLSVKHTSAIDAIKKLEDLGIVNYEKRGFVKLTQSGIEK”, the “soluble fraction (log2)” value is -0.177. Consider “HMELSPAELGERLKVARETANVTQDAGAKAAGIARTTLVAIEKGQRSARIDELQTLSRRYGVSVNSLLRR”, for which the “soluble fraction (log2)” value was 0.096. With “HMELSSRQAMIVDIVRKYEPITSEQIADKLNLTRSALRPDLAVLTMIGILEARPRVGYFFTGK”, the “soluble fraction (log2)” value was -0.269.

Turning to “HMELSTQERIQILLEILNQREIISFSQTLRKKEGKKGVVVTFLASLELAKDGYVTLVQNKSDQIYLRSN”, the “soluble fraction (log2)” value is -0.428. Take “HMELTDSLTENAKKLYSVLTTEPRHIDDLSEEAKLSSADTLAALTELELYSLVALSEGKHYYK”: the “soluble fraction (log2)” value was -1.05. Turning to “HMELTKAELEVMQILWKLKKAFVGDILDRMVEPKPAYNTVSTVVRLLEKKGVVGHESFGKSHRYYPL”, the “soluble fraction (log2)” value is -0.0549.

With “HMELTVPDFTNMSLEDAINLAEKRDVRLEVTDSVFVKRLGRGFIYSQNPVAGSKVKKGRRILITINAIN”, the “soluble fraction (log2)” value is 0.113. For “HMEMDPKELGRQVLAKRKEKGWSQEQLGKMAEISRNYVSQIERGEADSISIKIINRLAIALGVSPSDLGE”, the “soluble fraction (log2)” value is 0.21. For “HMEMKHKNSQIFQAIKLKHMGFTPTQISEELRVSRTTINHWLTKAQLKDVKWEDIRENSADELVKLLFG”, the “soluble fraction (log2)” value is -0.322.

Consider “HMEMNPLDIQNKAAELAQQWLQLPVGERQKQMAAVRTSNPNLHAMAKQKMEEMRSQAESQGRQSLSQP”, for which the “soluble fraction (log2)” value is -0.0586. The figure for “HMEMTDKEEELMRIFWNHGPMFVREIVELYPEPRPHFNTLSTFVRNLEQKGFVSHEAVGGSFRYYAV” is -1.44; for “HMEMTEDEITKQFDAMEREAKKEIDTGADKRAFMYGVSRTAAGMAGKNPKYARFITDKAKEVIENIAKYK” it is 0.207. As to “HMENAEALLKKLSGVLSDYEYKMLMLYADGKTPRRIAQETGQSAKSVSNALFRARTKLKELYEDQ”, the “soluble fraction (log2)” value was -0.455. On to “HMENEIVMPVQINGKKRGDLTIARDADQASIQKAVLELDFVKAALNGGSPKKVIVVPQRIVNVV”, for which the “soluble fraction (log2)” value came out at 0.127. For the sequence “HMENFKVFMKAVQEVSPVPVRFDEISSGAKGYYSNTEKEIVIQNGMSESQTMKTGIHEVTHAMLHDRDF”, the “soluble fraction (log2)” value worked out at 0.22.

For the sequence “HMENFYGYEIINPEAKKFFITMGVNRYALEQWIKNKSEYGLIIVKSLYPFDPRLKLFLEKNRERIQNLIF”, the “soluble fraction (log2)” value was -0.305. The figure for “HMENKLIELTLSLDKSERLDKILTQELSHTRSVIQQWLKSGFVSVNGEIVKANYKAKDGDHVTIQIE” is -0.379. With “HMENKTGEVTVREDSALTLRQGPGTNYEKVGQAYRGDRVDVLEEQNGWYKVKTYDGKEAWASSSYISIV”, the “soluble fraction (log2)” value was -0.0485. For the sequence “HMENMETSDIVARYSNMPGGIIEAFHEIVDRHGFLSQEAIIEAARGFGISVAEAYGVATFYSMFS”, the “soluble fraction (log2)” value is -0.42.

Consider “HMENMRLILASNLRRIREERRLSLNKVSELTGVSKSMLGQIERGESNPTLQTVWKIANGLRVSLTDLTEVP”, for which the “soluble fraction (log2)” value stood at 0.252.

As for “HMENRILLSEDSLKHLAQDIPIDIIEKLSVLKDQIYHRYDDFNSIVQGLLGGENYLKYKDNILSFVEQ”, the “soluble fraction (log2)” value was -0.311. For “HMENSMDTDWDVSGVDPSQYRLLFSTLGAIAGVKDVGLNPDGLKIIHTPEALPAIKQAFDANNLKLKMRTN”, the “soluble fraction (log2)” value was -0.251. With “HMENSPLTHREAEVMRLMSEGKSNRAISEHLVISEKTVKNHVSSILQKMSVDDRTQAVLQAIKNGWVD”, the “soluble fraction (log2)” value was found to be 0.142. For the sequence “HMENTGFKDKKGNYIFDGDIVKDILGNIMKVEFKHFKWQLIPLNKTAFNMPMVDWLDLETETLNAEIIGN”, the “soluble fraction (log2)” value is -1.69.

Take “HMENTIESLLKAKGFNDIIVTVSDKQVDVVVSDKEIADNKRAQIEDVIKRKTGLEASAITITPA”: the “soluble fraction (log2)” value is -0.332.

Take “HMENVLFVNVLSMTVRELAEMMKIPVNKIIQDSFSKGIMMNPNQRLEYDNFAELAKKYGITVKI”: the “soluble fraction (log2)” value is -0.691.

With “HMENVMLRNFAIQATEAGVIKLLEDQRTFVWGSNNKKFMTVPFDEHPYSAMAAFFKTDEGLEIYKSIEKKF”, the “soluble fraction (log2)” value is -1.43. As for “HMENYQIETFVKFIEESTGEDGVAFEDLFQNFTSRPAVITMFLALLEALRRNSIRIFQKEEFSQILIYPK”, the “soluble fraction (log2)” value was -1.21. In the case of “HMENYTYKYATSANVNIREEPNTDSTILGKTLLNTEFQVVEDVDGWSKITTEAGYAYIKSEYLSDTE”, the “soluble fraction (log2)” value was -0.392.

Source of the values: the domain aggregation screens of Martell et al. (2025).
